Measurements taken from PMC5098423 (DNA repair, 2015).

Molecular target: T1, Q324H MUTYH (human, UniProt Q9UIF7-3 1-535, Q324H)
T1 sequence (looked up): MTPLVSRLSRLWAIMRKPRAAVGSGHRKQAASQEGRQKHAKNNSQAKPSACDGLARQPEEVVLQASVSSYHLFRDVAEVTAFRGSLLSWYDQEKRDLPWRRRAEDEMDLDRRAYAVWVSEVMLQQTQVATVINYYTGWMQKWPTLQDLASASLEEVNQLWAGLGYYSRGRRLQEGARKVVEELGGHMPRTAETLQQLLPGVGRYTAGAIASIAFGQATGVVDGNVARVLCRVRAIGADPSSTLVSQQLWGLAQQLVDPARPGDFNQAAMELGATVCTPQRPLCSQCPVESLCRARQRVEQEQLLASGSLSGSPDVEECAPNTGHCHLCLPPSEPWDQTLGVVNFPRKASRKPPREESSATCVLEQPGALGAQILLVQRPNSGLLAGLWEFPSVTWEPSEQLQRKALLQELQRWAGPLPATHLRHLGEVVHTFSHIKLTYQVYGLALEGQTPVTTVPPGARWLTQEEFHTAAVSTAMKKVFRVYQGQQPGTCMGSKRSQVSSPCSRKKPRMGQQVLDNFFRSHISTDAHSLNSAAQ
Assay: pull-down

percent decrease of the interaction relative to WT MUTYH: ~20%
B1: Flag-tagged Hus1 (natural protein, UniProt O60921 1-280, looked up)
chain: MKFRAKIVDGACLNHFTRISNMIAKLAKTCTLRISPDKLNFILCDKLANGGVSMWCELEQENFFNEFQMEGVSAENNEIYLELTSENLSRALKTAQNARALKIKLTNKHFPCLTVSVELLSMSSSSRIVTHDIPIKVIPRKLWKDLQEPVVPDPDVSIYLPVLKTMKSVVEKMKNISNHLVIEANLDGELNLKIETELVCVTTHFKDLGNPPLASESTHEDRNVEHMAEVHIDIRKLLQFLAGQQVNPTKALCNIVNNKMVHFDLLHEDVSLQYFIPALS
